Source: article PMC10015821 (Matrix biology : journal of the International Society for …, 2022)

Tests used:
Assay in all cases: SPR
[1] = target: mouse HMCN1 fragment G2F (mouse) (UniProt D3YXG0)
[2] = target: mouse HMCN1 fragment G2F-EGF1–2 (mouse) (UniProt D3YXG0)
[3] = target: mouse HMCN1 fragment G2F-EGF1–3 (mouse) (UniProt D3YXG0)
[4] = target: mouse HMCN1 fragment G2F-EGF1–4 (mouse) (UniProt D3YXG0)
[5] = target: mouse HMCN1 fragment G2F-EGF1–5 (Strep-tagged) (mouse) (UniProt D3YXG0)
[6] = target: mouse HMCN1 fragment TSR6-G2F-EGF1–2 (mouse) (UniProt D3YXG0)
[7] = target: mouse HMCN1 fragment G2F-EGF1–5 (Strep-tagged) (mouse, UniProt D3YXG0 22-5634)
[8] = target: laminin-511 (UniProt O15230 36-3695; P07942 22-1786; P11047 34-1609)
[9] = target: laminin-γ1 short arm (mouse) (UniProt P02468)
[10] = target: mouse HMCN1 fragment EGF1–5 (mouse) (UniProt D3YXG0)

Sequence of laminin-γ1 short arm (mouse) (P02468 34-1607): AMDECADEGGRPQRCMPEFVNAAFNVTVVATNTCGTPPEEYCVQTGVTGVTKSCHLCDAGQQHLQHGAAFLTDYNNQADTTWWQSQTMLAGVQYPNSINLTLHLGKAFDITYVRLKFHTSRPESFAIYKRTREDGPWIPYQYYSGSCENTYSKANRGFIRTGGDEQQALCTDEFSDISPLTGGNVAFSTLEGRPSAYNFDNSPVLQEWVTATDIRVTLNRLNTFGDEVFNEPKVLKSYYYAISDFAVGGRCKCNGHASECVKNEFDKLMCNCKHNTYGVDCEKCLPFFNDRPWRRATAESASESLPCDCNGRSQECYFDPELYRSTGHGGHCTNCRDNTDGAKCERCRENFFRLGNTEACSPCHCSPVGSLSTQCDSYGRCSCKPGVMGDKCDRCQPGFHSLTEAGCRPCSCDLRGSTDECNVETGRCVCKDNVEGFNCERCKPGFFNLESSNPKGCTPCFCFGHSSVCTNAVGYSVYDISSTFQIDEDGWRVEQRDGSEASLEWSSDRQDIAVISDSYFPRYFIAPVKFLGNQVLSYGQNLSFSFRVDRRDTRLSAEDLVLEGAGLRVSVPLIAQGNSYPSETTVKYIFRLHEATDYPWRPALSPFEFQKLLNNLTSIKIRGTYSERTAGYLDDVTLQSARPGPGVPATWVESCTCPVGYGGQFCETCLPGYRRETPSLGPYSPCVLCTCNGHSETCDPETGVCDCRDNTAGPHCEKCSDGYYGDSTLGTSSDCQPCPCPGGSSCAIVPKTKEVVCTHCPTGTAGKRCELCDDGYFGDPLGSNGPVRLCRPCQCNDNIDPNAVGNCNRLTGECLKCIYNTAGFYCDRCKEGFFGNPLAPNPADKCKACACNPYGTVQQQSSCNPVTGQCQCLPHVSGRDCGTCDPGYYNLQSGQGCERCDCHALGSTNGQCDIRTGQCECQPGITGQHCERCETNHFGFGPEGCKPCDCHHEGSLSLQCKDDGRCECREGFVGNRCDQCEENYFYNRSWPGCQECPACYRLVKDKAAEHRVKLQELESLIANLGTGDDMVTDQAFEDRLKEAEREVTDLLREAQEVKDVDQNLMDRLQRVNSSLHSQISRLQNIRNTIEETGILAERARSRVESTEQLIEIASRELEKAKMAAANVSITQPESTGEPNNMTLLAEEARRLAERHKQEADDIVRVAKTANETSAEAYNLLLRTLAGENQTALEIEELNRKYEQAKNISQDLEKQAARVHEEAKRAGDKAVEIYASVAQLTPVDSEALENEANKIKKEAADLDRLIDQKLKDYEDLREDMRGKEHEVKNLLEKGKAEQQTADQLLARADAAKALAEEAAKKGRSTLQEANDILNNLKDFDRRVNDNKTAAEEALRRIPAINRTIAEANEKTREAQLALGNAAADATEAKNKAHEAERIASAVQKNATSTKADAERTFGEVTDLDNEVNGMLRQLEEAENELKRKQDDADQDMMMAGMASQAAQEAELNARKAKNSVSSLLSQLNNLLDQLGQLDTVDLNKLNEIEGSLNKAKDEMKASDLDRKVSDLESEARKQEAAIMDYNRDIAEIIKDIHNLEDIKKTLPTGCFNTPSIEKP

Kd [1] | Kd [2] | Kd [3] | Kd [4] | Kd [5] | Kd [6] | Kd [7] | Kd [8] | koff [8] | Molecule | also measured
> 3000 nM | 185 nM | 170 nM | 180 nM | 30 nM | 176 nM | – | – | – | mouse NID2 TY-G3 (TG3) domain, Strep-tagged (from UniProt O88322 31-1403) (domain or fragment) | –
– | – | – | – | 585 nM | – | – | – | – | mouse NID1 TY-G3 (TG3) domain (from UniProt P10493 29-1245) (domain or fragment) | –
– | – | – | – | – | – | 110 nM | – | – | hybrid fragment: single TY domain of NID1 with the G3 domain of Nid2 (N1T-N2G3) (domain or fragment) KTRCQLEREHILGAAGGADAQRPTLQGMFVPQCDEYGHYVPTQCHHSTGYCWCVDRDGRELEGSRTPPGMRPPCIPTVAPPVVRPTPRPDVTPPSVGTFLLYAQGQQIGHLPLNGSRLQKDAARTLLSLHGSIVVGIDYDCRERMVYWTDVAGRTISRASLEAGAEPETIITSGLISPEGLAIDHFRRTMYWTDSGLDKIERAELDGSERKVLFHTDLVNPRAITVDPIRGNLYWTDWNREAPKIETSSLDGENRRILINKDIGLPNGLTFDPFSKLLCWADAGTKKLECTLPDGTGRRVIQNHLNYPFSIVSYADHFYHTDWRRDGVISVNKDSGQFTDEFLPEQRSHLYGITAVYPYCPTGRK | –
– | – | – | – | – | – | 170 nM | – | – | hybrid fragment: two TY domains of NID2 with the G3 domain of NID1 (N2T-N1G3) (domain or fragment) LKPCEYQQRYAQTQHAYPGSRIHIPQCDDQGNFVPLQCHGSTGFCWCVDRNGHEVPGTQTPPGSTPPHCGPPPEPTQRPRTVCERWRESLLEHYGGTPRDDQYVPQCDDLGHFIPLQCHGKSDFCWCVDKDGRELQGTRSQPGTRPACLSTVAPPIHQGPVVPTAVIPLPPGTHLLFAQTGKIERLPLERNTMKKTEAKAFLHIPAKVIIGLAFDCVDKVVYWTDISEPSIGRASLHGGEPTTIIRQDLGSPEGIALDHLGRTIFWTDSQLDRIEVAKMDGTQRRVLFDTGLVNPRGIVTDPVRGNLYWTDWNRDNPKIETSHMDGTNRRILAQDNLGLPNGLTFDAFSSQLCWVDAGTHRAECLNPAQPGRRKVLEGLQYPFAVTSYGKNLYYTDWKTNSVIAMDLAISKEMDTFHPHKQTRLYGITIALSQCPQGHNYCSVNNGGCTHLCLPTPGSRTCRCPDNTLGVDCIERK | –
> 3000 nM | 200 nM | 210 nM | 193 nM | 20 nM | 160 nM | – | 5 nM | 0.00081 s⁻¹ | mouse nidogen-2 (NID2), full-length, Strep-tagged (natural protein, UniProt O88322 31-1403, looked up) LRPDELFPYGESWGDQLLPEGDDESSAAVKLAIPLRFYDAQFSSLYVGTNGIISTQDFPRETQYVDDDFPTDFPAIAPFLADIDTSHSRGRILYREDTSGAVLSLAARYVRTGFPLSGSSFTPTHAFLATWEHVGAYEEVSRGAAPSGELNTFQAVLASDESDTYALFLYPANGLQFFGTRPKESYNVQLQLPARVGFCRGEADDLKREALYFSLTNTEQSVKNLYQLSNLGIPGVWAFHIGSRFALDNVRPATVGGDPSTARSSALEHPFSHAAALESYTEDSFHYYDENEEDVEYPPVEPGEAPEGHSRIDVSFNSKADPGLVDVGTSSPGSDRASPWPYPAPGNWPSYRETESASLDPQTKQGRPVGEGEVLDFRDPAELLDQMGTRAPAPPEADAALLTPVNEDLGGRNTQSYPEAGPVPSEPDVPVPPLEGEVLPHYPESGHVPPLRGGKYVIGLEDHVGSNDQVFTYNGANLETCEHSHGRCSQHAFCTDYTTGFCCHCQSRFYGNGKHCLPEGAPHRVNGKVSGRLRVGHIPVHFTDVDLHAYIVGNDGRAYTAISHVPQPAAQALLPVLPIGGLFGWLFALEKPGSENGFSLTGATFVHDVEVTFHPGEERVRITQTAEGLDPENYLSIKTNIEGQVPFIPANFTAHITPYKEFYHYRDSVVTSSSSRSFSLTSGSINQTWSYHIDQNITYQACRHAPRHLAIPATQQLTVDRAFALYSEDEGVLRFAVTNQIGPVEVDSAPVGVNPCYDGSHTCDTTARCHPGTGVDYTCECTPGFQGDGRSCVDVNECATGFHRCGPNSVCVNLVGSYRCECRSGYEFADDQHTCILIAPPPNPCLDGSHTCAPEGQARCIHHGGSSFSCACLPGFIGTGHQCSDVDECAENRCHEAAICYNTPGSFSCRCQPGYRGDGFHCTSDTVPEDSISGLKPCEYQQRYAQTQHAYPGSRIHIPQCDDQGNFVPLQCHGSTGFCWCVDRNGHEVPGTQTPPGSTPPHCGPPPEPTQRPRTVCERWRESLLEHYGGTPRDDQYVPQCDDLGHFIPLQCHGKSDFCWCVDKDGRELQGTRSQPGTRPACIPTVAPPVVRPTPRPDVTPPSVGTFLLYAQGQQIGHLPLNGSRLQKDAARTLLSLHGSIVVGIDYDCRERMVYWTDVAGRTISRASLEAGAEPETIITSGLISPEGLAIDHFRRTMYWTDSGLDKIERAELDGSERKVLFHTDLVNPRAITVDPIRGNLYWTDWNREAPKIETSSLDGENRRILINKDIGLPNGLTFDPFSKLLCWADAGTKKLECTLPDGTGRRVIQNHLNYPFSIVSYADHFYHTDWRRDGVISVNKDSGQFTDEFLPEQRSHLYGITAVYPYCPTGRK | Kd [9]: 6 nM; koff [9]: 0.00073 s⁻¹; kon [9]: 120000 M⁻¹ s⁻¹; Kd [10]: 500 nM; koff [5]: 0.00837 s⁻¹
– | – | – | – | 560 nM | – | – | 2.4 nM | 0.0021 s⁻¹ | mouse nidogen-1 (NID1), full-length (natural protein, UniProt P10493 29-1245, looked up) LNRQELFPFGPGQGDLELEAGDDVVSPSLELIGELSFYDRTDITSVYVTTNGIIAMSEPPATEYHPGTFPPSFGSVAPFLADLDTTDGLGNVYYREDLSPFIIQMAAEYVQRGFPEVSFQPTSVVVVTWESVAPYGGPSSSPAEEGKRNTFQAVLASSNSSSYAIFLYPEDGLQFFTTFSKKDESQVPAVVGFSKGLVGFLWKSNGAYNIFANDRESIENLAKSSNAGHQGVWVFEIGSPATAKGVVSADVNLDLDDDGADYEDEDYDLVTSHLGLEDVATPSPSHSPRRGYPDPHNVPRILSPGYEATERPRGVPTERTRSFQLPAERFPQHHPQVIDVDEVEETGVVFSYNTGSQQTCANNRHQCSVHAECRDYATGFCCRCVANYTGNGRQCVAEGSPQRVNGKVKGRIFVGSSQVPVVFENTDLHSYVVMNHGRSYTAISTIPETVGYSLLPLAPIGGIIGWMFAVEQDGFKNGFSITGGEFTRQAEVTFLGHPGKLVLKQQFSGIDEHGHLTISTELEGRVPQIPYGASVHIEPYTELYHYSSSVITSSSTREYTVMEPDQDGAAPSHTHIYQWRQTITFQECAHDDARPALPSTQQLSVDSVFVLYNKEERILRYALSNSIGPVRDGSPDALQNPCYIGTHGCDSNAACRPGPGTQFTCECSIGFRGDGQTCYDIDECSEQPSRCGNHAVCNNLPGTFRCECVEGYHFSDRGTCVAAEDQRPINYCETGLHNCDIPQRAQCIYMGGSSYTCSCLPGFSGDGRACRDVDECQHSRCHPDAFCYNTPGSFTCQCKPGYQGDGFRCMPGEVSKTRCQLEREHILGAAGGADAQRPTLQGMFVPQCDEYGHYVPTQCHHSTGYCWCVDRDGRELEGSRTPPGMRPPCLSTVAPPIHQGPVVPTAVIPLPPGTHLLFAQTGKIERLPLERNTMKKTEAKAFLHIPAKVIIGLAFDCVDKVVYWTDISEPSIGRASLHGGEPTTIIRQDLGSPEGIALDHLGRTIFWTDSQLDRIEVAKMDGTQRRVLFDTGLVNPRGIVTDPVRGNLYWTDWNRDNPKIETSHMDGTNRRILAQDNLGLPNGLTFDAFSSQLCWVDAGTHRAECLNPAQPGRRKVLEGLQYPFAVTSYGKNLYYTDWKTNSVIAMDLAISKEMDTFHPHKQTRLYGITIALSQCPQGHNYCSVNNGGCTHLCLPTPGSRTCRCPDNTLGVDCIERK | –
